Results taken from patent US20040146511A1.
Values belong to the binder of their own block, whether it stands above or below them.

How the values were obtained:
[1] = target: Recombinant human Factor IX (rhFIX, Genetics Institute) (human) (UniProt P00740); test: titration microcalorimetry; 106 uM FIX injected into 2 uM mAb
human Factor IX (human) = human Factor IX (human) (UniProt P00740); test: cell-based or functional assay
human Factor IX (human), sequence (P00740 47-461 limits assumed): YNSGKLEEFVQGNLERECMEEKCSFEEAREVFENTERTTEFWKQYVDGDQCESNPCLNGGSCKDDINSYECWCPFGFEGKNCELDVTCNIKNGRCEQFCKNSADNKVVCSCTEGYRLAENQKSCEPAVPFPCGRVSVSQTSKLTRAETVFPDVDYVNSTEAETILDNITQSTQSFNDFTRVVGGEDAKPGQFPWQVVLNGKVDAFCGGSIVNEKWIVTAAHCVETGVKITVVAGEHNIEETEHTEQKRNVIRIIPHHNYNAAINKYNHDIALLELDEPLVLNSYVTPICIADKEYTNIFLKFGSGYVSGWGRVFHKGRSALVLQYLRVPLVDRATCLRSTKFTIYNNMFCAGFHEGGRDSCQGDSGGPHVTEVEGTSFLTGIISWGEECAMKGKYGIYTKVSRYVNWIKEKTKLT

Recombinant human Factor IX (rhFIX, Genetics Institute) (human), sequence (P00740 47-461 limits assumed): as above

- molar binding ratio (FIX per mAb) [1]: 2 FIX per mAb
B1: humanized anti-Factor IX monoclonal antibody SB 249417 (antibody, V domains shown)
VH: QVQLVQSGSELKKPGASVKVSCKASGYTFTNYGMNWVRQAPGQGLKWMGWINTRNGKSTYVDDFKGRFVFSLDSSVSTAYLQISSLKADDTAVYYCTREGNMDGYFPFTYWGQGTLVTVSS
VL: QIVLTQSPSSLSASVGDRVTITCRASSSVNYMHWYQQKPGKAPKPWIYATSNLASGVPSRFSGSGSGTDYTFTISSLQPEDIATYYCQQWSINPRTFGQGTKVEIKR

- aPTT at saturating concentrations (human Factor IX (human)): 90 s
- aPTTmax/aPTTnormal x 100 % (human Factor IX (human)): 350%
B2: murine anti-Factor IX monoclonal antibody BC2 (antibody, from a related filing, mouse IgG2a, V domains shown)
VH: QIQLVQSGPELKKPGETVKISCKASGYTFTNYGMNWVKQAPGKGLKWMGWINTRNGKSTYVDDFKGRFAFSLESSASTANLQIDNLKDEDTATYFCTREGNMDGYFPFTYWGQGTLVTVSA
VL: QIVLSQSPAILSASPGEKVTMTCRASSSVNYMHWYQQKPGSSPKPWIYATSNLASGVPARFSGSGSGTSYSLTISRVEAEDAATYYCQQWSINPRTFGGGTKLEIKR
